Substrate in data set [1]: C[N+](C)(C)CCCC(=O)[O-]
The data set can be described thus: UV-visible spectrophotometric MtqC methylation assay. The data set is classed as biochemical, Eubacterium limosum. Conditions: ATP, Ti(III)citrate, pH 7.2, 37 °C, anoxic.

Substrate in data set [2]: C[N+](C)(C)C[C@H](O)CC(=O)O
Described as above. Type of data set: biochemical, Eubacterium limosum. Conditions: methyl acceptor Co(I)-MtqC 15 μM, RamQ 5 μM, ATP, Ti(III)citrate, pH 7.2, 37 °C, anoxic.

Setting [3] is: methyl acceptor Co(I)-MtqC 30 μM, RamQ 5 μM.
The mark [4] stands for this setting: methyl acceptor Co(I)-MtqC 56 μM, RamQ 4.5 μM.

B1: MtyB (Eubacterium limosum) (protein)
chain: MLKGNLFTTFYSKDDIELIHESVLRVFNEVGVKFEYEEALELFKKHGARVEGDLVFIPEELLNKALSTIPESFEIVGPESKLEIGIGKGLVVAPTNGCPNLEDWDGNYRQTNADDLENFYKIINTSDVYGISSQVAADIPGFENCPTESALAQMAMMAKYSRKPMYNILGITPHNYKRGNAREGARECVQLIKKYMDNFDDYVCYSGMCVLPPLTVGTDALEHYFAFAEEKQPITITTCSMTNMTAPPSLMGSIVADFANMLAVAVMIQLIEPGLPVILSPFSSVSDMREVRLMTGAPEFLMIMSGHIAMGDFYRIPVRCSGALADGFTYDYQAGVESTLGALAVSLSNACILPHASGDLSNFNLLSFPKFMMDEEMLRYMKRLHDGVAISEKKANVELIKKVGPRGVYLKGRTPKDYREETYLTSPVFNRGTCNEEGRAATPPIQERAYKVYKERIESFELPDMTQAQKDLLNEHLPEKFKIK
notes: C-terminal hexahistidine tag, codon-optimized gene in pETDuet-1 co-expressed with mtqC in E. coli Tuner(DE3), separated from MtqC by anion exchange
Regarding B1, in data set [1] (setting [3]), the Michaelis constant (Km) worked out at 3.5 ± 0.7 mM and the kcat was determined as 180 ± 10 min⁻¹. Moreover, in data set [2], the Km is given as 4.0 ± 0.7 mM and the turnover number (kcat) turned out to be 407 ± 26.5 min⁻¹.

B2: MtcB (Eubacterium limosum) (protein)
chain: MIRNSLTDVFFAKDDVENLHEGVLRVLSKVGVKIENDEALGIFEQHGARVENGTVYIGEVLLNKALQTVPANFELQGFDRTVQVGLDHDPVVIPTNGTPMVLNFDGSYSDTNTDDLVNFYKLIDTSDVMQVTSEIAVDVPGLDKTKDSLLAQTALLMKYSHKPIYNILGATIHNYKKGSVAQGVRENIQFAKKYYGYDDKYVIYSGTCVISPLGVGWEAMDHFMGFIKENQPISITACSMTNLTAPGSLYGSVVEDAAAILSIVVLSQLMNPGLPVLYTSLSSMSDMRYVQLCMGAPEFALITLGHIALANFYKIPVRVGGALGDAFKADYQAGVESFVGLMAPMLSQSAMIPHGCGTMGSFNLTSYEKFIMDEETIRYLMRLRRGFEVSDKRKEKALKDITKVGPRGNFLGGRTPKEYREDNYLASEVFNRKGCKENTREEQGDIRDRARKVYDARMEAYELPDTTLEQKKLLNTELPEQYKFDI
notes: expression plasmid of earlier work
B2: in data set [1] (setting [4]), the Km was determined as 15 ± 6 mM and the kcat is 8.3 ± 1.1 min⁻¹.

As usually defined, the Km is the substrate concentration at which the rate is half of its maximum. A word on the kcat: it is the maximal rate divided by the concentration of active sites.

The record behind these values is publication PMC8604678, “The MttB superfamily member MtyB from the human gut symbiont Eubacterium limosum is a cobalamin-dependent γ-butyrobetaine methyltransferase” (The Journal of Biological Chemistry, 2021).
